Assay: amylase study: sensory rating of vanilla custard desserts with added amylase
Format: in vivo, human
Method: The role of salivary amylase in modifying texture sensations was evaluated in the following examples, in which the level of amylase activity was varied within subjects, rather than between subjects. Alpha-amylase was added in varying concentrations to starch and CMC (non-starch)-based vanilla custard desserts. Additionally, amylase activity was inhibited to various degrees by adding the pharmaceutical amylase inhibitor Acarbose (CAS nr. 56180-94-0) in various concentrations to the same test foods.
Eighteen subjects, 11 females and 7 males aged between 18 and 34 yrs, participated the ‘amylase study’ and 7 different subjects, all females aged between 39 and 56 yrs, participated in the ‘acarbose study’. The subjects participating in the latter study had been informed about acarbose and its possibly side effects if swallowed. To avoid these side effects, subjects expectorated rather than swallowed the acarbose samples. All subjects signed consent forms expressing their willingness to participate in the studies, and all had previously been screened for olfactory and taste disorders and had received extensive training in the description of sensory mouthfeel and afterfeel attributes for semi-solid foods. Testing took place at the sensory facilities of TNO-Nutrition and Food Research in Zeist, The Netherlands.
For the ‘amylase study’, two commercially available full-fat vanilla custard desserts (3 wt % fat AH vanille vla or “AH”, Albert Heijn Corp., Zaandam, The Netherlands; and 3 wt % fat Boerenland via or “BL”, Campina Corp., Woerden, The Netherlands) were used as the two starch-based vanilla custard desserts. For the ‘acarbose study’, Boerenland via was used again but the Albert Heijn via was replaced by a low-fat dairy custard (0.1 wt % fat Creamex, Creamex Corp., Rijkervoort, The Netherlands).
In both studies, the effect of amylase and acarbose on starch-based custards was compared with their effects on non-starch custards to verify amylase-starch interactions. A non-starch custard was produced using full-fat (3 wt %) commercially available milk (Campina Corp., Woerden, The Netherlands) and adding 0.85 wt % of sodium carboxy methylcellulose (or “CMC”) (Akuell AF 3295, Akzo Nobel Corp., Amersfoort, The Netherlands), 6.25 wt % of sugar and 0.33 wt % of vanilla powder. Yellow colorant (Egg yellow, Supercook, Leeds, United Kingdom) was added at 3.33 ml/l custard to match the color of the starch-based custards.
For the amylase study, a bacterial α-amylase (from Bacillus licheniformis, with 15 wt % NaCl and 25 wt % sucrose, Sigma Corp., Zwijndrecht, The Netherlands) was used to prepare amylase solutions at concentrations of 40, 160, and 640 units in 100 μl aliquots of water. This concentration range is similar to the range of individual amylase levels found across a group of young and healthy subjects (Engelen, unpublished results). The amylase concentrations, including a control of 0 units, were added to 5 ml samples of the starch-based custards. Only the highest concentration, 640 units, and the control were added to 5 ml samples of the CMC custard.
Panelists were seated in sensory booths with appropriate ventilation and lighting. Testing took place over either 3 (‘amylase study’) or 1.5 (‘acarbose study’) sessions of 2 hours. Within each session, subjects were presented with 20 trials during which they received in the amylase study each of the three custards once with the various amounts of amylase and with two different processing instructions. Over the 3 sessions, each custard was presented 3 times in each condition. In the ‘acarbose study’, each of the three custards with various amounts of acarbose were presented twice in the first session, and once in the second half session. The stimulus presentation order was randomized per subject and per session. The trials were presented at an average rate of one trial per 5 minutes. A break separated the first and the second half of each session. […]

[1] = R, AH custard, amylase 40 units
[2] = R, AH custard, amylase 160 units
[3] = R, AH custard, amylase 640 units
[4] = R, BL custard, amylase 40 units
[5] = R, BL custard, amylase 160 units
[6] = R, BL custard, amylase 640 units
[7] = R, CMC custard, amylase 640 units
[8] = U, AH custard, amylase 40 units
[9] = U, AH custard, amylase 160 units
[10] = U, AH custard, amylase 640 units
[11] = U, BL custard, amylase 40 units
[12] = U, BL custard, amylase 160 units
[13] = U, BL custard, amylase 640 units
[14] = U, CMC custard, amylase 640 units

B1: Amylase: bacterial α-amylase from Bacillus licheniformis, with 15 wt % NaCl and 25 wt % sucrose, Sigma Corp. (protein, UniProt P06278 30-512, looked up)
Alpha-amylase: ANLNGTLMQYFEWYMPNDGQHWKRLQNDSAYLAEHGITAVWIPPAYKGTSQADVGYGAYDLYDLGEFHQKGTVRTKYGTKGELQSAIKSLHSRDINVYGDVVINHKGGADATEDVTAVEVDPADRNRVISGEHRIKAWTHFHFPGRGSTYSDFKWHWYHFDGTDWDESRKLNRIYKFQGKAWDWEVSNENGNYDYLMYADIDYDHPDVAAEIKRWGTWYANELQLDGFRLDAVKHIKFSFLRDWVNHVREKTGKEMFTVAEYWQNDLGALENYLNKTNFNHSVFDVPLHYQFHAASTQGGGYDMRKLLNSTVVSKHPLKAVTFVDNHDTQPGQSLESTVQTWFKPLAYAFILTRESGYPQVFYGDMYGTKGDSQREIPALKHKIEPILKARKQYAYGAQHDYFDHHDIVGWTREGDSSVANSGLAALITDGPGGAKRMYVGRQNAGETWHDITGNRSEPVVINSEGWGEFHVNGGSVSIYVQR
modifications: formulated with NaCl and sucrose
- decrease of creamy mouthfeel (AH custard, amylase added): up to 25%
- airy-mo [1]: 25
- bitter/chem-fl [1]: 30
- creamy-af [1]: 38
- creamy-mo [1]: 44
- fatty-af [1]: 29
- heterogeneous-mo [1]: 26
- prickling-mo [1]: 19
- rough-af [1]: 26
- smooth-mo [1]: 65
- sticky-af [1]: 28
- temperature-mo [1]: 38
- thick-mo [1]: 41
- airy-mo [2]: 25
- bitter/chem-fl [2]: 38
- creamy-af [2]: 35
- creamy-mo [2]: 37
- fatty-af [2]: 31
- heterogeneous-mo [2]: 29
- prickling-mo [2]: 20
- rough-af [2]: 25
- smooth-mo [2]: 62
- sticky-af [2]: 29
- temperature-mo [2]: 35
- thick-mo [2]: 38
- airy-mo [3]: 25
- bitter/chem-fl [3]: 44
- creamy-af [3]: 34
- creamy-mo [3]: 35
- fatty-af [3]: 29
- heterogeneous-mo [3]: 33
- prickling-mo [3]: 25
- rough-af [3]: 23
- smooth-mo [3]: 61
- sticky-af [3]: 29
- temperature-mo [3]: 38
- thick-mo [3]: 41
- airy-mo [4]: 28
- bitter/chem-fl [4]: 22
- creamy-af [4]: 35
- creamy-mo [4]: 43
- fatty-af [4]: 28
- heterogeneous-mo [4]: 24
- prickling-mo [4]: 17
- rough-af [4]: 28
- smooth-mo [4]: 63
- sticky-af [4]: 29
- temperature-mo [4]: 37
- thick-mo [4]: 41
- airy-mo [5]: 29
- bitter/chem-fl [5]: 32
- creamy-af [5]: 35
- creamy-mo [5]: 45
- fatty-af [5]: 30
- heterogeneous-mo [5]: 27
- prickling-mo [5]: 19
- rough-af [5]: 26
- smooth-mo [5]: 63
- sticky-af [5]: 29
- temperature-mo [5]: 37
- thick-mo [5]: 40
- airy-mo [6]: 25
- bitter/chem-fl [6]: 40
- creamy-af [6]: 37
- creamy-mo [6]: 37
- fatty-af [6]: 30
- heterogeneous-mo [6]: 32
- prickling-mo [6]: 23
- rough-af [6]: 26
- smooth-mo [6]: 64
- sticky-af [6]: 29
- temperature-mo [6]: 37
- thick-mo [6]: 38
- airy-mo [7]: 36
- bitter/chem-fl [7]: 45
- creamy-af [7]: 39
- creamy-mo [7]: 39
- fatty-af [7]: 36
- heterogeneous-mo [7]: 34
- melting-mo [7]: 35
- prickling-mo [7]: 25
- rough-af [7]: 21
- smooth-mo [7]: 47
- sticky-af [7]: 37
- temperature-mo [7]: 44
- thick-mo [7]: 49
- vanilla-fl [7]: 30
- airy-mo [8]: 25
- bitter/chem-fl [8]: 35
- creamy-af [8]: 36
- creamy-mo [8]: 44
- fatty-af [8]: 29
- heterogeneous-mo [8]: 28
- prickling-mo [8]: 19
- rough-af [8]: 30
- smooth-mo [8]: 62
- sticky-af [8]: 31
- temperature-mo [8]: 41
- thick-mo [8]: 39
- airy-mo [9]: 27
- bitter/chem-fl [9]: 37
- creamy-af [9]: 37
- creamy-mo [9]: 39
- fatty-af [9]: 28
- heterogeneous-mo [9]: 27
- prickling-mo [9]: 19
- rough-af [9]: 27
- smooth-mo [9]: 65
- sticky-af [9]: 28
- temperature-mo [9]: 39
- thick-mo [9]: 38
- airy-mo [10]: 26
- bitter/chem-fl [10]: 47
- creamy-af [10]: 34
- creamy-mo [10]: 36
- fatty-af [10]: 28
- heterogeneous-mo [10]: 28
- prickling-mo [10]: 22
- rough-af [10]: 27
- smooth-mo [10]: 66
- sticky-af [10]: 31
- temperature-mo [10]: 40
- thick-mo [10]: 32
- airy-mo [11]: 27
- bitter/chem-fl [11]: 27
- creamy-af [11]: 37
- creamy-mo [11]: 42
- fatty-af [11]: 28
- heterogeneous-mo [11]: 27
- prickling-mo [11]: 17
- rough-af [11]: 30
- smooth-mo [11]: 65
- sticky-af [11]: 31
- temperature-mo [11]: 42
- thick-mo [11]: 37
- airy-mo [12]: 26
- bitter/chem-fl [12]: 32
- creamy-af [12]: 38
- creamy-mo [12]: 43
- fatty-af [12]: 29
- heterogeneous-mo [12]: 27
- prickling-mo [12]: 17
- rough-af [12]: 31
- smooth-mo [12]: 62
- sticky-af [12]: 32
- temperature-mo [12]: 42
- thick-mo [12]: 41
- airy-mo [13]: 27
- bitter/chem-fl [13]: 38
- creamy-af [13]: 35
- creamy-mo [13]: 39
- fatty-af [13]: 29
- heterogeneous-mo [13]: 33
- prickling-mo [13]: 20
- rough-af [13]: 31
- smooth-mo [13]: 66
- sticky-af [13]: 34
- temperature-mo [13]: 41
- thick-mo [13]: 37
- airy-mo [14]: 46
- bitter/chem-fl [14]: 52
- creamy-af [14]: 39
- creamy-mo [14]: 40
- fatty-af [14]: 41
- heterogeneous-mo [14]: 38
- melting-mo [14]: 32
- prickling-mo [14]: 24
- rough-af [14]: 21
- smooth-mo [14]: 49
- sticky-af [14]: 44
- temperature-mo [14]: 48
- thick-mo [14]: 53
- vanilla-fl [14]: 29
- effect on odor, mouthfeel or afterfeel attributes (non-starch CMC-based custard, added amylase): failed to affect any of the odor, mouthfeel or afterfeel attributes
- intensity of bitter/chemical flavor, change when amylase added (non-starch CMC-based custard, p=0.01): increased
- bitter/chemical flavor, change with increasing amylase concentration (starch-based custards): increased significantly
- creamy mouthfeel, change with increasing amylase concentration (starch-based custards, p<0.0001): decreased
- melting mouthfeel, change with increasing amylase concentration (starch-based custards, p=0.001): increased significantly
- vanilla flavor, change with increasing amylase concentration (starch-based custards, p=0.001): decreased
- thick mouthfeel, change with increasing amylase concentration (starch-based custards, p=0.004): decreased
- heterogeneous mouthfeel, change with increasing amylase concentration (starch-based custards, p=0.006): increased significantly
- fatty afterfeel, change with increasing amylase concentration (starch-based custards, p=0.05): decreased
